According to publication PMC5405039, “Genome-wide identification of grain filling genes regulated by the OsSMF1 transcription factor in rice”:

T1: OsSMF1 (RISBZ1, OsbZIP58)-DsRed fusion (Oryza sativa cv. Ilmi, UniProt Q6ZLB0 1-436)
T1 sequence: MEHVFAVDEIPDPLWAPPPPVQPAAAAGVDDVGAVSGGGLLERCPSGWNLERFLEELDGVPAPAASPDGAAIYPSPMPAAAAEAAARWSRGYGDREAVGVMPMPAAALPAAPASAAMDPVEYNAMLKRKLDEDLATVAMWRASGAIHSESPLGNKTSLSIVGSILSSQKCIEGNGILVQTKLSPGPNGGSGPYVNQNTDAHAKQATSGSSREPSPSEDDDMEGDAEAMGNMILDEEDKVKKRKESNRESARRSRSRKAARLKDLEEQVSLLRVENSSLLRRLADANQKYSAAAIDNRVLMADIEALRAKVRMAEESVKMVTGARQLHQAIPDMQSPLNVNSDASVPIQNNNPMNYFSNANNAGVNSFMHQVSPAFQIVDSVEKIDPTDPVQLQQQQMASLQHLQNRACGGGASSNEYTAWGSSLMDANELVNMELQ

B1: ACGT 21-bp wild type (dsDNA)
DNA 1: AAGCGCCACGTCAGCCAAAAC
DNA 2: GTTTTGGCTGACGTGGCGCTT
B2: ATGA 21-bp wild type (dsDNA)
DNA 1: CTGATTCGGATGACGGACGAA
DNA 2: TTCGTCCGTCATCCGAATCAG
B3: GCN4 21-bp wild type (dsDNA)
DNA 1: GTTTGTCATGGCTGAGTCATG
DNA 2: CATGACTCAGCCATGACAAAC

Target: T1, OsSMF1 (RISBZ1, OsbZIP58)-DsRed fusion
Assay: EMSA (SYBR Gold); 5 mM MgCl2; Kd EMSA: 10 mM Tris, 50 mM KCl, 1 mM DTT pH 7.5, 50 ng/ul poly(dI-dC), 2.5% glycerol, 0.05% NP-40, 5 mM MgCl2, 0.2 ug/ul OsSMF1, DNA 0-6 uM, 1 h room temperatur
Settings: protein: recombinant; tags: DsRed fusion; Ni-NTA purified; chain copies: 2; SYBR Gold stain (Kd); 21 bp

Binder | Kd [nM]
B1 | 335
B2 | 1120
B3 | 646
